Patent US20090232783

Target: Ferritin-H (expression plasmid pcEXV-1) (Homo sapiens) (UniProt P02794)
Assay: cell_activity
Conditions: CV-1 cells, EKLF-stimulated CAT reporter

Chain of Ferritin-H (expression plasmid pcEXV-1) (Homo sapiens) (P02794 2-183): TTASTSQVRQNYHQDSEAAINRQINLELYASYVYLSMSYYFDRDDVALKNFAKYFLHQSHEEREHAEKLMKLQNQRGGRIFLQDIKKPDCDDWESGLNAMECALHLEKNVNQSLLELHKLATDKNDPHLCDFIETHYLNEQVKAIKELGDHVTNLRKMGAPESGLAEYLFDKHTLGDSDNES

beta-globin -610/+20 promoter in CAT reporter
activity: 62 % repression
